{"source": "the domain aggregation screens of Martell et al. (2025)", "data": [{"assay": "soluble fraction after stress (log2 fold change); higher = more stays soluble; pooled small domains, quantitative proteomics", "details": "stress: pH 4", "how_it_was_run": "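Aggregation propensity is estimated from the fold change in each domain's soluble amount after acid stress. Pooled small-domain libraries were stressed at pH 4, and higher log2 values mean more stayed soluble.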", "values": [{"sequence": "HMNGPTPEEKLAVVNAEFVRQYGDEYEELELEGEELEEYYQKALNKEDFEYDIPHLPGWDEP", "soluble fraction (log2)": -0.905}, {"sequence": "HMNHHEIIMKNIDTLLKEKNISISKLEKSLGISNGYISRLRNGKYNFSLDLLLKLAKKFKISIDYLLTDFD", "soluble fraction (log2)": -0.119}, {"sequence": "HMNHNPSIARKISREIKRGAPPESLLNLARTVNDSYYRSLSFVSIAYSIKGKKSKELFEEAISNLT", "soluble fraction (log2)": -0.0826}, {"sequence": "HMNHTIEENDRVLILDPRGKKYLITVTNRVFHTNLGKLDISELIGKNYGDKIKSHMGKNFSILKPNLIDYI", "soluble fraction (log2)": 0.053}, {"sequence": "HMNIAEIGQKVAQQRVALGISQERLAKLSDLSRSTIHHLEHGTLHEIGAAKLFKLLSLLDIQLK", "soluble fraction (log2)": 0.159}, {"sequence": "HMNIDQAFISDLERMIMPDISKYELMDIISIMENSGFTIKVEGTGNEVRQVIKPGSKLKKGQKIKIKL", "soluble fraction (log2)": -1.79}, {"sequence": "HMNIEIIEVQEESTPSEISKIISTESTKIIEDLLNLGVMASLETPLKNQDIEKLLEGYGYIVDIKP", "soluble fraction (log2)": -1.84}, {"sequence": "HMNIGEKIKKIRTQQNKSTYELADIINKNGFKISQSAISKIENGRKKIDIETLEEIAKALDIEVDLLIT", "soluble fraction (log2)": -0.282}, {"sequence": "HMNIGIVSLAAVPMRKEPSDRAEMVNQILFGETFDVLEEQEKWTLVQLHHDAYQGWIDRKQWDYASGIAD", "soluble fraction (log2)": -1.3}, {"sequence": "HMNIIHNPSKNFIESDLNDLKEGMEIEHKKFGYGLIKSIDKTQNHQKAVVNFKLVGEKTLLLSFARLRIV", "soluble fraction (log2)": -0.519}, {"sequence": "HMNIILFLDELHRLLSDLPPEERNQAIKYYEDYFEDAGPENEQAILKELGSPQELANQIKATT", "soluble fraction (log2)": -1.36}, {"sequence": "HMNIIMLGEFIKEQRIKRKMTQEYLASELGISRPTYSQIELGTRELTIPEARKMAAIFNISLEDFLAEKE", "soluble fraction (log2)": 0.149}, {"sequence": "HMNIMNINQALNVLNLKGTVSKEELAKAYKKMAIKYHPDRNPTGVEMMKVINSAYEFLKGLNLEEIKH", "soluble fraction (log2)": 0.252}, {"sequence": "HMNINLNVGKRLKSIRQNKELSLDEVSNLTNVSKPALAQIERGASSPTINTLWKISKGLKVPLSYFLQE", "soluble fraction (log2)": "≥ 0.43"}, {"sequence": "HMNINVRNTGIKAVENNIINLSSDQRTFTWASNDRKLITVPFDENPYSALAAWFKTDEGIEVYQTIEKKL", "soluble fraction (log2)": -0.294}, {"sequence": "HMNIWNEWAFKKWIESDEYTGPDMTDFGHRTLVDEEFSKQYKEQMSLFKERVLTDDEFSAKYGDL", "soluble fraction (log2)": -2.07}, {"sequence": "HMNKEDIASNEKLLGLLNHMSKVLKDIDFIKDDRPMIVRKINHIFKKATLSEEEINILRGVLSAIENHS", "soluble fraction (log2)": -0.104}, {"sequence": "HMNKEKLLEMFESMSIIIVQSLEEKEQTEDRIETELFNEAKTPRYSTLTKQDIQSVIRNILITVGV", "soluble fraction (log2)": -0.959}, {"sequence": "HMNKELVVPDLTDMRVKDAEFEAHQVGMRTEIVDSVYVRRLKRGYVYKQNPVPGSKVKKGRRIALTINAV", "soluble fraction (log2)": 0.1}, {"sequence": "HMNKETYIDALERKLWDRLDPDQLRDIISYYKDYFAMEAAKGISEEETIRKLGDPALLAKSILAAE", "soluble fraction (log2)": -0.145}, {"sequence": "HMNKEVDLPNFVGMTKENAQAQADKIKIKLEFEEEYSSDVEEGKIISQNPEYKENYKIKEKSTVSLKI", "soluble fraction (log2)": 0.0516}, {"sequence": "HMNKFKVNERVRVIATGEIGIVKGREILPVEGSKRVNIEYLVKVGNGFSNWKAFSKKELEPVR", "soluble fraction (log2)": "≥ 0.43"}, {"sequence": "HMNKFRVGDEVEIVKLDKTIQHFGGEEVLSPVGTKTYITYVDVTGKEIEIDKDIYSYHADDLTLV", "soluble fraction (log2)": -1.76}, {"sequence": "HMNKKLEMKIEQLDLSVRLFNSLKRSGIYTVAQIIKLTEEDVMRFRSLGRKSFKELKEKLSEHGLEFE", "soluble fraction (log2)": -1.02}, {"sequence": "HMNKLKALREEQGLSMMEIAKQLNMPYTTYVNYEKGTREPNSEMLIKFSKFFNVTIDYLIGNSEQKN", "soluble fraction (log2)": -0.129}, {"sequence": "HMNKNLQLMINEIKKGLASEDIETRKKSVLMLSRIDAPEIIQVLEPLKDDSSEEIRKISSKIISVLSKKYT", "soluble fraction (log2)": 0.332}, {"sequence": "HMNKNQGVTTTNLNFRKSASTSSLVLYTIPKNTTLDILDKLPSGWYKVKYKGLTGYVSGSYV", "soluble fraction (log2)": 0.22}, {"sequence": "HMNKPTFNIFNNRLTFPFKGDITIYSLDGKRVFSAYNESSVNLSFLNRGSYISEFNNSRSVLIL", "soluble fraction (log2)": -0.948}, {"sequence": "HMNKRKQRINDLMDLIREQPALSIKNLAEMLNVSEMTIRRDMAYLKSNNLLNRAHGMNFLNS", "soluble fraction (log2)": 0.132}, {"sequence": "HMNKSEFLNELEKRIRVLEKNEIKDILAEYSQHIDMRMGSGLSEAEAIKDFGDMDDLAAEILEAY", "soluble fraction (log2)": -0.436}, {"sequence": "HMNKVDEEKNAELVSTIQNKFSDVSAATKKKVKAFMAEHDIPNFKNADEIPTANLEAIVAMLNED", "soluble fraction (log2)": 0.22}, {"sequence": "HMNKYNNIEDLKEEDFENISEKYQVPVSFVKSKLDDLINWHEKNPQKNHYKNYLSALRDWVKRDSLKIKL", "soluble fraction (log2)": 0.0178}, {"sequence": "HMNLDELGNRIREQRIKQRLKQQDIANALMLSAQAVSKWERGENAPDISVLPDLVKILGVSVDWLLTGP", "soluble fraction (log2)": -1.15}, {"sequence": "HMNLDPHVVGHRLRDLRTRRDLTLADVAAETDISVSTLSRLESGSRRATLELLVPLARTYRVTLDELVDA", "soluble fraction (log2)": -0.353}, {"sequence": "HMNLDPIKRKSEILSLFESHKNVKFNEIFFEKVNKEFTVLTFLIILELVKDNIIDFSQTQEGLIEFFTR", "soluble fraction (log2)": 0.204}, {"sequence": "HMNLDVPGIIKRAKQALNLKRDSELAEFLGVSRATVTNWAARNSIDFRLLLDKLGNTVDYNWLLLGKGNPK", "soluble fraction (log2)": -0.188}, {"sequence": "HMNLDYKQFQVFNNIETLNTFTNLLSDNKIDFEVENNSKIFDPSFANNDFEKEYIVKIHPNDFEKVY", "soluble fraction (log2)": -1.32}, {"sequence": "HMNLEIGAIIKSLRAKHKYTQEQLSAFLGVTPQAVSRWEAGNGYPDIELLPAIARFFEVSTDELLGL", "soluble fraction (log2)": -1.32}, {"sequence": "HMNLGDLYVIMEIAGQRDDVSARLMNREGQTFLVKTGTKLKSGDVVKEITPTYIKTDHDGEEAFLYF", "soluble fraction (log2)": -1.17}, {"sequence": "HMNLGETIYNLRKEKKLSQGDLAEQLSVSRQSVSKWENNSAVPDLDKLVKLSTIFGVSLDELVKG", "soluble fraction (log2)": 0.409}, {"sequence": "HMNLGLTGDPSVLYSILLQRGDSSRADLQRQTGWSLSKTTLVLNQLLAQKLIVQVGAGRSTQYRVIN", "soluble fraction (log2)": -0.196}, {"sequence": "HMNLGNLAYESKVTKQVLNMIRPLHPEYSSDDITRAVKEILSEEGSRQRRVDEIARGALDVLMGNPR", "soluble fraction (log2)": "≥ 0.43"}, {"sequence": "HMNLLQAHLLRLESAALLAEVREVDRQLSRWLHPLTPQSDVAIIDERNWEAAVARLTELGVHIEEGRW", "soluble fraction (log2)": -1.67}, {"sequence": "HMNLNIGNNIKNIRKSKNMTQTDFAELMGLSRSYIGDLENNRSNPSIKTLEAIARALDVPIVALIN", "soluble fraction (log2)": -0.726}, {"sequence": "HMNLSSETLSEMEARIGQMGVVELQDRRAYLLQEQEGTQNPSRLKEIADELSAIQKALVALV", "soluble fraction (log2)": -0.401}, {"sequence": "HMNLTEIGQRIRDRREELGLSQDRLAKLGGLPRVTINQLETGSIGDLGVSKLLNLLDLLGLTLDA", "soluble fraction (log2)": -0.614}, {"sequence": "HMNLTLMDALKAAGLPVDGINLSMVNKMMEEQMPIDKTSLNQMYQLVQDNKDINVTTLVELKRLG", "soluble fraction (log2)": -0.393}, {"sequence": "HMNLTSNDAYSRILNAIITSELRPGDTVTEIQLAQKFGFGRTPVREAIMRLENEGFIVSAERKKRVYIL", "soluble fraction (log2)": -0.815}, {"sequence": "HMNLTSSDIQKILSYALLADNSITLNSIEESMASLKLKKMSAEQLIELLEVSSMVLRNTNNSWSIL", "soluble fraction (log2)": -1.32}, {"sequence": "HMNMENIADKIGKIYESLPEDLKLMIKYRDIDDLTYDEIAVKADLPVGTVRSRLHRAREQLLKELEKN", "soluble fraction (log2)": -0.0554}, {"sequence": "HMNMEPNWLKWAKQLAALAQNGLTYSDNPYEIERYEHIRRIAAEMMAEGFELDTKTILELFPREKG", "soluble fraction (log2)": -1.41}, {"sequence": "HMNMFDMRKTGARISQLRRAAGLTQAELAEKLGISYQAVSSWERGSNMPDIGKLLDLARILNTTVDALLSA", "soluble fraction (log2)": 0.309}, {"sequence": "HMNMGKRFKELRKERKFTQQQLADRIGLAPSAISSYESGARYPSYDVLIKYSKIFHVTTDYLLG", "soluble fraction (log2)": 0.148}, {"sequence": "HMNMKVGPVPANVVPANIKAHVSNNYSKYQIVQMMQNDKGYQVKLSNGTDLYYDKDGNILKTS", "soluble fraction (log2)": 0.0948}, {"sequence": "HMNMSVGAALRRRRNELGMTLRELADEAELTSGFLSQVENDRVSPSLKSLGRIAEVLRIPLFQLLS", "soluble fraction (log2)": -0.659}, {"sequence": "HMNMSVVEKVIQQISNPGRDSLIPILQAVQEEEGFISRESVIEIGKALDLPASKIYGVATFYNQFR", "soluble fraction (log2)": -0.543}, {"sequence": "HMNMTDVLVVNQTVRGGTQITESMLSVKKVDKSSLPDNYLKASLKDEVVGKYFDLGLTSGGVLTKDNISVS", "soluble fraction (log2)": 0.104}, {"sequence": "HMNMVSGHLQIKKGYYYVVLSYYDNRNKRHVKYVSTGLPEKGNKRKAEAALARVRSEFEPPQE", "soluble fraction (log2)": 0.353}, {"sequence": "HMNNDFIVKSTDSHKVNLRSQPDTHADIIKRLDDHTIVEKLKTVRKNWYLVQLKDTTTQGYVHKSQLERV", "soluble fraction (log2)": 0.21}, {"sequence": "HMNNDFVERLRKLFGHASMAEIARRIDVPHATIRNYFQGRLPAPEVLIKLARETGVSLNWLLTGEGKMFA", "soluble fraction (log2)": -0.113}, {"sequence": "HMNNENELSSIISKVLEENPAEKERFLNGEKKLAGFFMGKIMKATKGTADPKKAAQLLNEIL", "soluble fraction (log2)": 0.271}, {"sequence": "HMNNFNVVVGKAIKNSFNTRENYITINAGKVLGIKTDMGVINDKGIVGIVEKTSKDFATIQSVLNIKS", "soluble fraction (log2)": 0.22}, {"sequence": "HMNNGTDGLTTRLRRAILAGQYTFKERLPSERQLAEHFNTSRGTVRKVLQRLTTMNLVEQRAGSGTYVRYG", "soluble fraction (log2)": 0.22}, {"sequence": "HMNNIGSKIKSAKILNNLDDNQLSEITGIDKLQLRSIQDGQVNPTKMELEIISKALKLPTNYFTK", "soluble fraction (log2)": 0.154}, {"sequence": "HMNNIIYLIANKLDVGKRLDQFITIRTEFSRQRVINLIEDGYVKLNNKIINLKKYKIKGDEKIEITIPEIR", "soluble fraction (log2)": -1.49}, {"sequence": "HMNNKVAVKSGYYFEIFNKEEIPTTLAKTKQKVKINNIQYDLYQGMSLDDERKIDDMFGDRMGYSIDDY", "soluble fraction (log2)": -1.9}, {"sequence": "HMNNKVAVKSGYYFELFDKDEIPATLEKMKQKVKIDNIKYDLYQGTSLEDERKIDTMFGEKMGYSIDDYI", "soluble fraction (log2)": -0.527}, {"sequence": "HMNNLVTRREVEILGWIKEGKTTSDIAGILSLSPFTVKNHVQNILKKLGARSRSHAVAQAINLGLLH", "soluble fraction (log2)": -0.446}, {"sequence": "HMNNPISMQKLRQVIRLYGQGKGTKSINSMLGVSRNTIKKYLQVYHSSGINYESFLAMSDKELSAVFLV", "soluble fraction (log2)": 0.226}]}]}
